Test results reported in publication doi:10.1101/059451.

Target: CFF-Myc (UniProt P01732)
Assay: co-IP

HA-TNPO1 (from UniProt Q92973 1-898) (natural protein)
fold more TNPO1 co-IPed in the presence of Rab8-T22N than -Q67L or -wt: 3 fold
